Assay results: the DeepSol protein solubility set

Assay: soluble on expression in E. coli; label from the status in PepcDB or PDB records

Row | Sequence | soluble on expression in E. coli
1 | MASKMDTETHYSDVWVVIPAFNEAAVIGKVVTDVRSVFDHVVCVDDGSTDGTGDIARRSGAHLVRHPINLGQGAAIQTGIEYARKQPGAQVFATFDGDGQHRVKDVAAMVDRLGAGDVDVVIGTRFGRPVGKASASRPPLMKRIVLQTGARLSRRGRRLGLTDTNNGLRVFNKTVADGLNITMSGMSHATEFIMLIAENHWRVAEEPVEVLYTEYSKSKGQPLLNGVNIIFDGFLRGRMPR | not soluble
2 | MASMTGGQQMGRGSPNMLRKRQMTVLDLHPGSGKTRKILPQIIKDAIQQRLRTAVLAPTRVVAAEMAEALRGLPVRYQTSAVQREHQGNEIVDVMCHATLTHRLMSPNRVPNYNLFVMDEAHFTDPASIAARGYIATKVELGEAAAIFMTATPPGTTDPFPDSNAPIHDLQDEIPDRAWSSGYEWITEYAGKTVWFVASVKMGNEIAMCLQRAGKKVIQLNRKSYDTEYPKCKNGDWDFVITTDISEMGANFGASRVIDCRKSVKPTILEEGEGRVILGNPSPITSASAAQRRGRVGRNPNQVGDEYHYGGATSEDDSNLAHWTEAKIMLDNIHMPNGLVAQLYGPEREKAFTMDGEYRLRGEEKKNFLELLRTADLPVWLAYKVASNGIQYTDRKWCFDGPRTNAILEDNIEVEIVTRMGERKILKPRWLDARVYADHQALKWFKDFAAGKRHHHHHH | soluble
3 | MASPRANDAPIVLLHGFTGWGREEMLGFKYWGGVRGDIEQWLNDNGYRTYTLAVGPLSSNWDRACEAYAQLVGGTVDYGAAHAAKHGHARFGRTYPGLLPELKRGGRVHIIAHSQGGQTARMLVSLLENGSQEEREYAKAHNVSLSPLFEGGHHFVLSVTTIATPHDGTTLVNMVDFTDRFFDLQKAVLKAAAVASNVPYTSQVYDFKLDQWGLRRQPGESFDHYFERLKRSPVWTSTDTARYDLSIPGAEKLNQWVQASPNTYYLSFSTERTHRGALTGNYYPELGMNAFSAVVCAPFLGSYRNEALGIDDRWLENDGIVNTVSMNGPKRGSSDRIVPYDGTLKKGVWNDMGTYNVDHLEVIGVDPNPSFDIRAFYLRLAEQLASLRP | soluble
4 | MASQTNQTVVDTKKIETENPPKPQVPASSCRKRVKDDNATFFANLKDHMDEFIHASMDEHKTCFKNTMDKIFGSFSKAEAVAEKQIEAKEVVEIHSPLQTAVTK | soluble
5 | MASRLLRGVGALAAQALRAHGPRGAAVTRSMASGGGVPTDEEQATGLEREIMIAAQKGLDPYNMLPPKAASGTKEDPNLVPSISNKRIVGCICEEDNCTVIWFWLHKGESQRCPNCGTHYKLVPHQMAH | soluble
6 | MASRVNIVQVQILDNPAMFVDKFKMEITFEVFEHLPHDLEWELVYVGSGTSRDFDQVLDSALVGPIPEGRHKFVFDAEHPDISKIPVEDIVGVSVLLLRCKYNDQEFINMGWFVANEYTDEELKENPPAKPLIEKLSRKIETEDLRVTTFPIRWTDEDPVAEPVDEEANKVFDEDDLMPLHDDGQDDDEEEEDDDETGPNTEEVDLNESFNERMANAHDGTEQKNGEESMEHDGASGDVEMGDKH | soluble
7 | MASSEGLASVDPWSFRQNFNIDSWLLSDSFSHDSDILAKALHRSISTSTESSPLSPSSFFDSSTAAVDFSPPQTLSNVSFGSDPEIPAASALGLGKRKRGPGVSGGKQTKRRSRVSNKKSQTTFITADAANFRQMVQQVTGAKFLGSSNSIFAPIVKPEPHRLASRLPPSCGNLDRSSAVPTLDTSSFLSNHHQENIITDLGAPTGSFHHQSSAGTTTANVGGGSSAVELDSYPSFPTLESWKVM | not soluble
8 | MASSFDNQMDQDGMCSVYSAQPSETNCSINEVLAKEIIAVNETPDDQADSSIYPIPKSETNVSASEGFQPCQDINQFNLSVYSAPKSETPVTMNEKFERCKDLMNVLDYSVYSMPPSEANVTMNVASFSEYTALASETNVTMADVLKNVAQDLASEHTAKSAHPTFDTTAYVERLQAELGIPDSKVIGLECSNFSNAKIIDSIECLHQLDKFQPIPVDFDQNPDFGKTAKSVESYLLRSSNASSIHHEI | not soluble
9 | MASSKNYLEFVLEQLSGLDDVTYRSMMGEYILYFRGKIIGGIYDDRFLVKPVQAVLDKIDQSSFEFPYKGAKEMI | not soluble
10 | MASVTFSVPKGFTEFSGLRSSSASLPFGKKLSSDEFVSIVSFQTSAMGSSGGYRKGVTEAKLKVAINGFGRIGRNFLRCWHGRKDSPLDIIAINDTGGVKQASHLLKYDSTLGIFDADVKPSGETAISVDGKIIQVVSNRNPSLLPWKELGIDIVIEGTGVFVDREGAGKHIEAGAKKVIITAPGKGDIPTYVVGVNADAYSHDEPIISNASCTTNCLAPFVKVLDQKFGIIKGTMTTTHSYTGDQRLLDASHRDLRRARAAALNIVPTSTGAAKAVALVLPNLKGKLNGIALRVPTPNVSVVDLVVQVSKKTFAEEVNAAFRDSAEKELKGILDVCDEPLVSVDFRCSDFSTTIDSSLTMVMGDDMVKVIAWYDNEWGYSQRVVDLADIVANNWK | soluble
11 | MASYDKISDGWYRVCPKRSSNRALITVKLPFSTLFRLKPMTDITPFANRLGKNIKHLMKWAKRNGIEAWRIYDRDIPQFPFAADVYGDRIHLQEYDTGWLMRPEEYEAWLAEVLEAVAFVTGFAPEQIRLKRRERQKGLQQYEKTGKAGDDFVITENGRKFWVNLDKYLDTGLFLDHRNTRKKVGETAAGKRFLNLFSYTGSFTVYAATGGAASSETVDLSNTYLDWAKRNFELNGIDTERHKIVRADVFQYLQTAYGEGRRFDLIVMDPPSFSNSKKMSDILDIQRDHKKLIDGAVKLLASDGILYFSNNLRSFVLDDLVSEQYAVKDISKQSVPEDFRNKKIHRCWEIRHKS | not soluble
12 | MATGDGKSVMVVGVDDSEQSTYALEWTLDRFFAPYAPNYPFKLFIVHAKPNAVSAVGLAGPGTAEVVPYVDADLKHTAAKVVEKAKAICQSRSVHGAVIEVFEGDARNILCEVVDKHHASILVVGSHGYGAIKRAVLGSTSDYCAHHAHCSVMIVKKPKIKV | soluble
13 | MATGKGEYHMGNTMTKAIYDKFKVATPYGNKVATGAIPAEAVNIAVKVGGFKVGDQNYPINPKITFTNNTGIDIPGGTEFQFDIPVSAPDNAKDQSGGGLKVIASGHTRANNIGGLDGTMHRVAFSLPAWKSLPAGATYELDMVYYLPISGPANYTVKINNVEYAFSFEQPDLPVADLTALEHHHHHH | soluble
14 | MATIKDVARLAGVSVATVSRVINNSPKASEASRLAVHSAMESLSYHPNANARALAQQTTETVGLVVGDVSDPFFGAMVKAVEQVAYHTGNFLLIGNGYHNEQKERQAIEQLIRHRCAALVVHAKMIPDADLASLMKQMPGMVLINRILPGFENRCIALDDRYGAWLATRHLIQQGHTRIGYLCSNHSISDAEDRLQGYYDALAESGIAANDRLVTFGEPDESGGEQAMTELLGRGRNFTAVACYNDSMAAGAMGVLNDNGIDVPGEISLIGFDDVLVSRYVRPRLTTVRYPIVTMATQAAELALALADNRPLPEITNVFSPTLVRRHSVSTPSLEASHHATSD | soluble
15 | MATIKIKFRTSSVKTKEGVLFYQIIHARVTRQINTGYKIFPSEWDKHLACIILPDNNDIRRRFLAQLTSRIAEDMHRLKNIISKLEHSGNPFTSGKIIELFRIPPINKYSFLSFAQDLIIQLKQIGKERTAESYASAYNSFKRFMDNNGDVLLEDVNSNLMIKYEIYLKNCGVCPNSCSYYMRNLRAIYNRAVEKELTQQQYPFKYVYTGIDKTVKRAVSLKTIRQIQNLDLSTNPLMDYARDIFMFSFYTRGMSFIDMAYLKKKDLQNGVLSYRRHKTDQQLFIKWEKPMQKIVDKYNTIESSYLLPIIKNNGKDPRREYKNASHLINRKLKVIGQMLEIPVTLTTYVARHAWANIAKSKNISISVISEAMGHDSENTTRIYLASLDASIVDKANSIILKSL | not soluble
